Measurements reported in patent US20100291638.

Assays:
Conditions in all cases: dNTP incorporation; background <500
[1] = test system: T1, DNA polymerase clone 1128 (uncultured hot spring virus (Great Boiling Spring))
T1 sequence: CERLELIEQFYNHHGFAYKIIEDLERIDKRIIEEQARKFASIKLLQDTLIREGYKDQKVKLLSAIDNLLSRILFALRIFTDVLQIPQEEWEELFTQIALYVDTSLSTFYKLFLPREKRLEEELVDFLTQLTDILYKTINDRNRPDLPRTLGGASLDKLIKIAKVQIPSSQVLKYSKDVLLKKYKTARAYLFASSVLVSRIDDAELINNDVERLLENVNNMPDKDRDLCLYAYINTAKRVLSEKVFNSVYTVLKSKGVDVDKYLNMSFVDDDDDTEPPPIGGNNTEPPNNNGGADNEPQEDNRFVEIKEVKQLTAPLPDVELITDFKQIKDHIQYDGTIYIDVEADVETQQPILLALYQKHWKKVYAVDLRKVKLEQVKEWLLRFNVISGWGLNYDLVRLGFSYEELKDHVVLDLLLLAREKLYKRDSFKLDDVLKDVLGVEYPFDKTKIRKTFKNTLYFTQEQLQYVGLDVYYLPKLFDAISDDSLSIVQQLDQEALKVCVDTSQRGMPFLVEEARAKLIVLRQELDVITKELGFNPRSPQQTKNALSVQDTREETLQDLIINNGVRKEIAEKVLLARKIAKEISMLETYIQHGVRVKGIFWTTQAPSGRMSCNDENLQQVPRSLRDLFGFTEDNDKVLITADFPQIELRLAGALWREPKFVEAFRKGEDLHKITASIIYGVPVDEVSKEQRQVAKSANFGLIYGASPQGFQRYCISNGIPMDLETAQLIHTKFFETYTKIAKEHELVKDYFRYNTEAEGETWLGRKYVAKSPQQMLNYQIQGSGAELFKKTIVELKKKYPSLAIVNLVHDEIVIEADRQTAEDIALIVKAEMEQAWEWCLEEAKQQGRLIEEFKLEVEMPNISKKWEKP

[2] = test system: T2, DNA polymerase clone 2783GBS (uncultured hot spring virus (Great Boiling Spring))
T2 sequence: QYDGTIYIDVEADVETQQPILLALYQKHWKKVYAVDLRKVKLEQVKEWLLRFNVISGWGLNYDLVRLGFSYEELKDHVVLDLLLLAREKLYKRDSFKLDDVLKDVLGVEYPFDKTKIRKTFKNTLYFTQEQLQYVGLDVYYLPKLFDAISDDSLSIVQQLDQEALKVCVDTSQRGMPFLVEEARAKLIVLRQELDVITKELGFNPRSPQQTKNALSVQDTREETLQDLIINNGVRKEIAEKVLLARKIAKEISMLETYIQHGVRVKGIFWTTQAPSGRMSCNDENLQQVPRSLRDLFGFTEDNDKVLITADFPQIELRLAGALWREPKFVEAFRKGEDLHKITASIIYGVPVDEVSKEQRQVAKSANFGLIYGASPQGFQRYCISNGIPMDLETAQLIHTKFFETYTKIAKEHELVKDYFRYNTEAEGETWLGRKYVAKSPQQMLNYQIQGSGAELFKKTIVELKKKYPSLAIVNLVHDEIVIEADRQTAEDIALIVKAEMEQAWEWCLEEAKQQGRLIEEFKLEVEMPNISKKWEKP

[3] = test system: T3, DNA polymerase clone 1160 (uncultured hot spring virus (Great Boiling Spring))
T3 sequence: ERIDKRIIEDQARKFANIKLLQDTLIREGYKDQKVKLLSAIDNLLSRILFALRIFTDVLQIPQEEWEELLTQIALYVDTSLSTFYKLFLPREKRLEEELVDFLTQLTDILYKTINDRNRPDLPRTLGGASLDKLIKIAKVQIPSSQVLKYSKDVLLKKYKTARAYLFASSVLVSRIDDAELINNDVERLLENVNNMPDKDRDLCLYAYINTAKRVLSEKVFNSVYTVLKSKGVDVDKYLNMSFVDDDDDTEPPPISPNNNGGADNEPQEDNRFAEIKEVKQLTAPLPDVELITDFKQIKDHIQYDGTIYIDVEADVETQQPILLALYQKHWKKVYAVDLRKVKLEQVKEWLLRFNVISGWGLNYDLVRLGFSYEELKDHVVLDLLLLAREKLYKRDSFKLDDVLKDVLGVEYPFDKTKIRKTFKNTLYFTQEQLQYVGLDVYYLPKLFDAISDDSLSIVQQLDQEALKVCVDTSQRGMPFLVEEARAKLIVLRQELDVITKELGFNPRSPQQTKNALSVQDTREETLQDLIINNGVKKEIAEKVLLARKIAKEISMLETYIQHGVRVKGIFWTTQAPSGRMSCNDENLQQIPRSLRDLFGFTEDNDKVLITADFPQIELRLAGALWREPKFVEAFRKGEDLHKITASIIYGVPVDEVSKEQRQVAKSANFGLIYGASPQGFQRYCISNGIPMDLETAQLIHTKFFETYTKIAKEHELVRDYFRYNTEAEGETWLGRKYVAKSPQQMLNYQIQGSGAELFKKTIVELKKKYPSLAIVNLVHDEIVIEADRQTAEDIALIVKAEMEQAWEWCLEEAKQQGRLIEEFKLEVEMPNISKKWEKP

[4] = test system: T4, DNA polymerase clone 347 (uncultured hot spring virus (Great Boiling Spring))
T4 sequence: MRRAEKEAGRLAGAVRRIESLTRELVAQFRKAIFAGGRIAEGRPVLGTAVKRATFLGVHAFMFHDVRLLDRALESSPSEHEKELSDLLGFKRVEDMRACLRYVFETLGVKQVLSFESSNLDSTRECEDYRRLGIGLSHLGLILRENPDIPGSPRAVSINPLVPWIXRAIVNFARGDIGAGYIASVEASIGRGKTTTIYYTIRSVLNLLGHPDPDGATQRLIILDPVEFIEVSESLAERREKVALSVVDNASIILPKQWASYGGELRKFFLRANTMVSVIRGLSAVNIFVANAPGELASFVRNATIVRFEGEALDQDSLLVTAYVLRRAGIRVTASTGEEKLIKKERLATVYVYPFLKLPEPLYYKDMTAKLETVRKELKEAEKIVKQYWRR

activated calf thymus DNA showed an activity [1] of 16400 cpm, an activity [2] of 11500 cpm and an activity [3] of 139000 cpm. The activity [4] was 18700 cpm.
